Experiments:
[1] = system: mTOR/p70S6K signaling pathway; experiment: Western blot analysis of mTOR/p70S6K signaling pathway in Jurkat T cells; format: cell-based, human; conditions: 100 nM compound with 10 ng/ml IL2, 24 hours, without changes in total p70S6K, FIG. 20A
Procedure: To examine the biological activities of these compounds, western blot analysis of mTOR/p70S6K signaling pathway and T-cell proliferation assay were performed with human Jurkat T cells. T-cell viability and proliferation were assessed using alamarBlue® cell viability reagent (Invitrogen).
For the western blot analysis of mTOR/p70S6K signaling pathway, briefly, Jurkat T cell were seeded into 6-cm cell culture dish in RPM11640 medium containing 10% fetal bovine serum.
Insoluble material was collected by centrifugation at 14,000×g for 20 minutes at 4° C. The cell lysate samples were separated on 10% SDS-PAGE gels and transferred to a PVDF membrane (Millipore). The membrane blots were blocked in PBS containing 5% BSA for 1 hour at room temperature, and incubated with primary antibodies, anti-phospho-p70S6K antibody (Cell Signaling Technology, Danvers, USA) and anti-p70S6K antibody (Cell Signaling Technology), overnight at 4° C. […] Then the membranes were washed three times with TBST, and immunoreacted bands were detected with ECL™ western blotting detection reagents (Millipore) and exposed on Fujifilm (Tokyo, Japan). Relative quantification of ECL signals on X-ray films were analyzed by using Image J (NIH, Bethesda, Md., USA).

[2] = system: scFv specific for CTLA-4; experiment: Western blot of recombinant CTLA-4 detected with scFv specific for CTLA-4; format: binding; conditions: scFv 1 μg/ml; FIG. 14C
Procedure: Recombinant CTLA-4 protein was analyzed and detected using western blotting. Briefly, 50 μl of the purified CTLA-4 protein was electrophoresed on the 12% SDS-PAGE gel (lane 2) and electroblotted over to a PDVF membrane. The protein (CTLA-4)-IgG1Fc-(scFv α HLA-A1) was used as a positive control (lane 1). After blocking with 5% BSA in TBST at room temperature for 1 hour, the diluted scFv specific for CTLA-4 (1 μg/ml) was added and incubated with the membrane overnight at 4° C. with gentle shaking. The membrane was rinsed and washed 3 times with TBST. The diluted HRP-conjugated protein L (1:5000) was added and incubated with the membrane at room temperature for 1 hour, and the rinse and wash cycle was repeated with TBST for 3 times. The membrane was then incubated with HRP substrate solution for 20 minutes before being exposed to the photographic film.

[3] = target: T1, PD1-IgG1.Fc (Homo sapiens, UniProt Q15116); experiment: ELISA of coated recombinant PD-L1 binding PD1-IgG1.Fc; conditions: PD-L1 coated at 50 μg/ml, PD1-IgG1.Fc at 50 μg/ml; FIG. 14D
T1 construct: made in house; host or cells: Expi293F
T1 sequence (Q15116 with tags, fused parts or gaps): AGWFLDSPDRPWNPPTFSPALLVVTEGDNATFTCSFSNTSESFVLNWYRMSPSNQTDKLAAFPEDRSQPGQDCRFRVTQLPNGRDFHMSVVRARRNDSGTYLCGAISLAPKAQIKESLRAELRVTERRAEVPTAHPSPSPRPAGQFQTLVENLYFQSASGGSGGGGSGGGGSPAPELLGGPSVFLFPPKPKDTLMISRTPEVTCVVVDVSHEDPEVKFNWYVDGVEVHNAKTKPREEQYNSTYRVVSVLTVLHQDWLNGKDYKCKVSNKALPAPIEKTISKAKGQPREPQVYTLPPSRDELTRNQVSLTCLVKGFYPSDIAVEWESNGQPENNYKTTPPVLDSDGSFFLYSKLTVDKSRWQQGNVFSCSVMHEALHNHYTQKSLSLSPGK
Procedure: Binding activity of recombinant PD-L1 protein was assayed with ELISA using a 96-well plate coated with recombinant PD-L1 protein in 50 μg/ml concentration, 100 μl per well. After the excess PD-L1 was washed off and the solid phase blocked, 100 μl per well of PD1-IgG1.Fc at 50 μg/ml was added. The bound PD1-IgG1.Fc was determined by HRP-conjugated goat anti-human IgG.Fc. 50 μl of TMB substrate was added for color development. The reaction was stopped by 50 μl of 1M HCl. Absorbance at 450 nm was measured with a plate reader. Each bar represents the mean OD450 value of duplicate samples.

[4] = target: T2, human HLA-A2 (Homo sapiens, UniProt P04439); experiment: Single colony ELISA of phage-displayed scFvs specific for human HLA-A2; format: binding; conditions: secreted scFv in supernatant; HLA-A2 0.5 μg per well; FIG. 16B
T2 construct: made in house; host or cells: Expi293F
Procedure: E. coli strain ER2738 infected with single-clonal phages each harboring a selected scFv gene in its phagemid was grown in the mid-log phase in 2YT broth (16 g/l tryptone, 10 g/l yeast extract, 5 g/l NaCl, pH 7.0) with 100 μg/ml ampicillin in deep well at 37° C. with shaking. After the broth reached an OD600 of 1.0, IPTG was added to a final concentration of 1 μg/ml. The plates were incubated at 37° C. overnight under rigorously shaking. Thereafter, the plates were centrifuged at 4,000 g for 15 minutes at 4° C.
For soluble scFv binding test, ELISA was carried out. Briefly, 96-well Maxisorp 96-well plate (Nunc) was coated with human HLA-A2 (0.5 μg/100 μl PBS per well) or two negative control antigens, human heat shock protein 70 (Hsp 70) and RSV-IgG1.Fc fusion protein (prepared by our laboratory), for 18 hours with shaking at 4° C. After being treated with 300 μl of blocking buffer for 1 hour, 100 μl of secreted scFv in the supernatant was mixed with 100 μl of blocking buffer and then added to the coated plate for another 1 hour. Goat anti-E-tag antibody (conjugated with HRP, 1:4000, Cat. No. AB19400, Abcam) was added to the plate for 1 hour. TMB substrate (50 μl per well) was added to the wells and the absorbance at 450 nm was measured after reactions were stopped by adding 1N HCl (50 μl per well).

[5] = target: T3, human HLA-A1 (Homo sapiens, UniProt P04439); experiment: ELISA of purified scFv of mAb specific for human HLA-A1; format: binding; conditions: scFv specific for TNF-α as negative control; FIG. 15C
T3 construct: made in house; host or cells: Expi293F
Procedure: The expression of the constructed gene in Expi293F cells was performed as in preceding Examples. Culture supernatants were harvested and scFv proteins in the media were purified using Protein L affinity chromatography. FIGS. 15A, 15B and 15C show 12% SDS-PAGE, mass spectrometric and ELISA analyses of purified scFv of mAb specific for human HLA-A1. […] The scFv specific for TNF-α was used as a negative control, which was prepared as described in PCT patent application publication No. WO/2016112870.

[6] = target: T3, human HLA-A1; experiment: ELISA of tetrazine-conjugated scFv specific for human HLA-A1; format: binding; conditions: unmodified scFv as positive control; FIG. 17B
Excerpt: The purity of tetrazine-conjugated scFv specific for human HLA-A1 was identified through Coomassie blue staining of 12% SDS-PAGE. FIGS. 17A and 17B show, respectively, the mass spectrometric and ELISA analysis of tetrazine-conjugated scFv specific for human HLA-A1, in which unmodified scFv specific for human HLA-A1 was used as a positive control.

Molecule: COC1CC2CCC(C)C(O)(O2)C(=O)C(=O)N2CCCCC2C(=O)OC(C(C)CC2CCC(OC(=O)CN)C(OC)C2)CC(=O)C(C)C=C(C)C(O)C(OC)C(=O)C(C)CC(C)C=CC=CC=C1C (stereo not shown) [sirolimus-Gly]
- phosphorylated level of p70S6K [1]: decreased

Molecule: COC1CC2CCC(C)C(O)(O2)C(=O)C(=O)N2CCCCC2C(=O)OC(C(C)CC2CCC(OC(=O)CNC(=O)CN)C(OC)C2)CC(=O)C(C)C=C(C)C(O)C(OC)C(=O)C(C)CC(C)C=CC=CC=C1C (stereo not shown) [sirolimus-diGly]
- phosphorylated level of p70S6K [1]: decreased

Molecule: recombinant human CTLA-4: recombinant human CTLA-4, SEQ ID NO: 30, with GGGGSGGGGS linker and terminal cysteine at the C-terminus
- binding by the scFv specific for CTLA-4 (western blot) [2]: specifically bound

Molecule: recombinant human PD-L1: recombinant human PD-L1, SEQ ID NO: 31, with GGGGSGGGGS linker and terminal cysteine at the C-terminus
- binding to recombinant PD1-IgG1.Fc (ELISA) [3]: specifically bound

B1: 3E10: phage-displayed scFv clone that binds to human HLA-A2, SEQ ID NO: 34 (protein)
scFv: DIQMTQSPSSLSASVGDRVTITCRASQDVFFFVAWYQQKPGKAPKLLIYGPPGLYSGVPSRFSGSGSGTDFTLTISSLQPEDFATYYCQQYFSFPITFGQGTKVEIKRGGGGSIEGRSGGGGSEVQLVESGGGLVQPGGSLRLSCAASGFTISNGGIHWVRQAPGKGLEWVASIWPSGGYTSYADSVKGRFTISADTSKNTAYLQMNSLRAEDTAVYYCARFGVNYHGIMDYWGQGTLVTVSS
modifications: phage-displayed scFv specific for HLA-A2, 3E10
- OD450 of binding to human HLA-A2 [4]: 1.3

B2: scFv of mAb specific for human HLA-A1: scFv with VL and VH from monoclonal antibody 4-35-7, SEQ ID NO: 32 (protein)
scFv: DIQMTQSPSTLSASVGDRVTITCRASQSISNWLAWYQQKPGKAPNLLIYKASSLESGVPSRFSGSGSGTEFTLTISSLQPDDFATYYCQQYHDYSVTFGAGTKVEIKRGGGGSGGGGSGGGGSEVQLLESGGGLVQPGGSQRLSCVASGVPFSNYAMNWVRQAPGKGLEWVSSISGGGDRTFYADSVKGRFTISRDNSKNTLYLQMNSLGAGDTAVYYCAKTYYDFWSGYSRHLNSWGQGSLVTVSSGGGGSGGGGSC
modifications: anti-HLA-A1 4-35-7 scFv
- binding to human HLA-A1 (ELISA) [5]: bound specifically

B3: tetrazine-conjugated scFv specific for human HLA-A1: scFv specific for human HLA-A1 (SEQ ID NO: 32) conjugated at C-terminal cysteine with Mal-PEG4-tetrazine (conjugate)
scFv: DIQMTQSPSTLSASVGDRVTITCRASQSISNWLAWYQQKPGKAPNLLIYKASSLESGVPSRFSGSGSGTEFTLTISSLQPDDFATYYCQQYHDYSVTFGAGTKVEIKRGGGGSGGGGSGGGGSEVQLLESGGGLVQPGGSQRLSCVASGVPFSNYAMNWVRQAPGKGLEWVSSISGGGDRTFYADSVKGRFTISRDNSKNTLYLQMNSLGAGDTAVYYCAKTYYDFWSGYSRHLNSWGQGSLVTVSSGGGGSGGGGSC
modifications: Mal-PEG4-tetrazine at C-terminal cysteine; anti-HLA-A1 4-35-7 scFv
- binding to recombinant HLA-A1 (ELISA) [6]: bound to recombinant HLA-A1

— patent US10293018B2, “Fusion protein for treating rejection reaction in transplantation” (Immunwork Inc., priority 2015, dated 2019)
